Test [1] addresses tubulin (alpha/beta heterodimer), polymerised into microtubules or as free tubulin-dimers (porcine) (UniProt P02550). The experiment in a line: co-sedimentation; KIF19A protein (printed 'Two micromoles') with 0-40 μM taxol-stabilized MTs in PEM buffer, 25°C, 15 min, AMP-PNP; 38,000 xg 10 min; SDS-PAGE band intensities; one site binding model.
For test [2] the target is unchanged.
Test [3] has the same target. The source holds these as a separate data set.
The target is the same in test [4]. This is another data set of the same source.
Test [5] has the same target. The source holds these as a separate data set.
Test [6] has the same target. The source holds these as a separate data set.

Residue numbers refer to the chain shown, from its start. Numbers in names are those of the source.

B1: KIF19A-353 (mouse KIF19A motor domain, monomeric construct) (domain or fragment)
chain: MKDSGDSKDQQLMVALRVRPISVAELEEGATLIAHKMDEQMVVLMDPMEDPDDILRAHRSREKSYLFDVAFDFTATQEMVYQATTKSLIEGVISGYNATVFAYGPTGCGKTYTMLGTDHEPGIYVRTLNDLFRAIEETSNDMEYEVSMSYLEIYNEMIRDLLNPALGYLELREDSKGVIQVAGITEVSTINAKEIMQLLMKGNRQRTQEPTAANQTSSRSHAVLQVAVRQRSRVKNILQEVRQGRLFMIDLAGSERASQTQNRGQRMKEGAHINRSLLALGNCINALSDKGSNKYINYRDSKLTRLLKDSLGGNSRTVMIAHISPASTAFEESRNTLTYAGRAKNIRTRVKQN
Molecule B1 yielded a Kd in test [1] of 0.6 µM. In test [2], this molecule yielded an MT-stimulated steady-state ATPase, maximum rate of 1.43 s⁻¹ and a steady-state ATPase stimulated by free tubulin-dimers, maximum rate of 0.8 s⁻¹.

B2: KIF19A-353 N297P (domain or fragment)
chain: B1 chain with N297P
B2 displayed a tubulin-stimulated ATPase rate, against the wild type (of the wild type) in test [3] of 0.5.

B3: KIF19A-353 PC2A (R56A-H58A-R59A-R61A) (domain or fragment)
chain: B1 chain with R56A, H58A, R59A, R61A
Consider B3, for which the Kd in test [1] came to 5.8 µM. This molecule also displayed a K (M, MT) of the MT-stimulated ATPase, against 353WT (times that of 353WT) in test [4] of 30.

B4: KIF19A-353 L55A (domain or fragment)
chain: B1 chain with L55A
B4 showed a Kd in test [1] of 1.6 µM.

B5: KIF19A-353 GS2R (G291 and S292 mutated to arginine) (domain or fragment)
chain: B1 chain with G291R, S292R
In test [5], B5 had a Michaelis-Menten constant of the ATPase for MTs and for tubulins, against 353WT (times lower than 353WT) of 4. The molecule also gave a Kd in test [1] of 0.6 µM.

B6: KIF19A-353 K2A (K290 and K294 replaced with alanine) (domain or fragment)
chain: B1 chain with K290A, K294A
The molecule B6 yielded a Kd in test [1] of 3 µM. In test [6], the EC50 of depolymerization of GMPCPP-stabilized MTs (5 mM ATP) was found to be 0.678 µM and the MT depolymerization speed (TIRF, 125 nM motor) was determined as 2 nm/s.

A word on the Kd: it is the free concentration of one partner at which half of the binding sites on the other are occupied at equilibrium, for simple one-to-one binding. A high value points to weaker binding.
